Data: patent US5646120, “Peptide-based inhibitors of HIV replication” (Allelix Biopharmaceuticals, Inc.)

T1: Tat basic domain wild-type oligopeptide ([…]) (HIV-1, UniProt P04608 P04608:49-57)
T1 chain: RKKRRQRRR

B1: TAR variant not binding tat (ssRNA)
RNA: GGAGAACUGAGCCUGGGAGCUCUCUCC
B2: truncated functional TAR RNA (ssRNA)
RNA: GGAGAUCUGAGCCUGGGAGCUCUCUCC

How the values were obtained:
HIV-1 Tat(1-86) = HIV-1 Tat(1-86) (HIV-1, UniProt P04608 P04608:1-86); assay: EMSA; TAR variant stated not to bind tat; settings: hairpin
[1] = target: T1, Tat basic domain wild-type oligopeptide …; assay: EMSA; affinity similar to tat(1-86); settings: protein: synthetic; tags: synthetic L-peptide, American Peptide Company; hairpin

| Binder | binding result (HIV-1 Tat(1-86)) | binding result [1] |
| --- | --- | --- |
| B1 | no binding |  |
| B2 |  | binds |
